Laboratory results as given in article PMC5673489 (Cell, 2017).

What was measured:
[1] = target: FIT-1 bispecific antibody (Fabs-in-tandem-Ig, ZKA190 outer Fab, ZKA185 inner Fab, IgG1 LALA) (human); experiment: SPR
[2] = target: T1, recombinant DIII of ZIKV E protein (Brazil 2015 strain SPH2015) (Zika virus, Brazil 2015 strain SPH2015, strain); experiment: SPR
T1 chain: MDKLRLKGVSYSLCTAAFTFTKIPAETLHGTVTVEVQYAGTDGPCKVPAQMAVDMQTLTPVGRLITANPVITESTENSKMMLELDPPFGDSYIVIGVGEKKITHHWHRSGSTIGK

[3] = target: T1, recombinant DIII of ZIKV E protein …; experiment: NMR titration

In the case of “recombinant E protein from ZIKV (natural protein)”, the Kd [1] is reported as under 1 pM.

B1: ZKA190 IgG (antibody, V domains shown)
VH: QVQLVESGGGVVQPGRSLRLSCAASGFTFSKYGMHWVRQAPGKGLEWVAVISYEGSNKYYADSVKGRFTISRDNSKNTLYLQMNSLRAEDTAVYYCAKSGTQYYDTTGYEYRGLEYFGYWGQGTLVTVS
VL: EIVLTQSPGTLSLSPGERATLSCRASQSVSSSYLAWYQQKRGQAPRLLIYDASSRATGIPDRFSGSGSGTDFTLTISRLEPEDFAVYYCQQYGRSRWTFGQGTKVEIK
B1: binds [2].

B2: ZKA190 Fab (Fab, V domains shown)
VH: QVQLVESGGGVVQPGRSLRLSCAASGFTFSKYGMHWVRQAPGKGLEWVAVISYEGSNKYYADSVKGRFTISRDNSKNTLYLQMNSLRAEDTAVYYCAKSGTQYYDTTGYEYRGLEYFGYWGQGTLVTVS
VL: EIVLTQSPGTLSLSPGERATLSCRASQSVSSSYLAWYQQKRGQAPRLLIYDASSRATGIPDRFSGSGSGTDFTLTISRLEPEDFAVYYCQQYGRSRWTFGQGTKVEIK
B2: binds [3].
